Measured values: patent publication US20100130424A1 (Janssen / Centocor, published 2010)
“And” between values parts separate entries of the source, which are not always exact repeats. Equal entries are not always repeated. Where two headings read alike, the source gives them in different places. One block for each molecule: values may come before it. No end group written: not given here. *: point of attachment. Succinimide(1-Et,3-yl) = CCN1C(=O)CC(*)C1=O

What was measured:
[1] = biological target: T1, human CRH receptor type 2 (human, UniProt Q13324 1-411); assay: cell-based or functional assay
T1 sequence (looked up): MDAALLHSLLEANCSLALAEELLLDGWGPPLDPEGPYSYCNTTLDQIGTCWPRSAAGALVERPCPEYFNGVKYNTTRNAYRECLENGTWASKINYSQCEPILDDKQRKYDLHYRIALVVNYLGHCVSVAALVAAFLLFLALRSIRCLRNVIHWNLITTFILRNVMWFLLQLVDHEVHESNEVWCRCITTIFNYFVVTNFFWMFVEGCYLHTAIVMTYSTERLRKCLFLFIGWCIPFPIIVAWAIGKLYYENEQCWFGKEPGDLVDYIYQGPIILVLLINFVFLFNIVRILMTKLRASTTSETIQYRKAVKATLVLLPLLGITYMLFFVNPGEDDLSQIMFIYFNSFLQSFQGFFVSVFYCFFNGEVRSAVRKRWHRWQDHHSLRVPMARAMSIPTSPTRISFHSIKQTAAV

[2] = biological target: T1, human CRH receptor type 2; assay: radioligand competition, [125I]-anti-sauvagine-30, membranes of h-CRHR2 SK-N-MC cells
[3] = biological target: T1, human CRH receptor type 2; assay: cell-based or functional assay; remark: listed apart in the source
[4] = biological target: T1, human CRH receptor type 2; assay: cell-based or functional assay; remark: listed apart in the source
[5] = biological target: T1, human CRH receptor type 2; assay: inferred from the test as antagonist at 10 µM, cAMP assay on h-CRHR2 SK-N-MC cells

Molecule: h-SRP (peptide)
pA50, cAMP [1]: 9.32 -log M and 9.58 -log M and 9.23 -log M | αmax, cAMP [1]: 114 and 109 and 98.6 | pKI [2]: 7.57 -log M

Molecule: SLDVPTNIMNLLFNIAKAKNLRAQAAANAHLMAQI-NH2 [CRHR2 peptide agonist with shortened amino acid sequence, 35aa, SEQ ID NO: 110]
KA (receptor affinity, in µM) [5]: > 10 µM

Molecule: TKFTLSLDVPCNIMNLLFNIAKAKNLRAQAAANAHLMAQI-NH2 [Cys-variant CRHR2 peptide agonist, SEQ ID NO: 12]
Log DR against h-SCP, cAMP [3]: 1.72 log10 ratio | pA50, cAMP [3]: 7.86 -log M

Molecule: TKFTLSLDVCTNIMNLLFNIAKAKNLRAQAAANAHLMAQI-NH2 [Cys-variant CRHR2 peptide agonist, SEQ ID NO: 11]
Log DR against h-SCP, cAMP [3]: 0.82 log10 ratio | pA50, cAMP [3]: 8.76 -log M

Molecule: TKFTLSLCVPTNIMNLLFNIAKAKNLRAQAAANAHLMAQI-NH2 [Cys-variant CRHR2 peptide agonist, SEQ ID NO: 9]
Log DR against h-SCP, cAMP [3]: 1.89 log10 ratio | pA50, cAMP [3]: 7.8 -log M

Molecule: LDVPTNIMNLLFNIAKAKNLRAQAAANAHLMAQI-NH2 [CRHR2 peptide agonist with shortened amino acid sequence, 34aa, SEQ ID NO: 111]
KA (receptor affinity, in µM) [5]: > 10 µM

Molecule: TKFTCSLDVPTNIMNLLFNIAKAKNLRAQAAANAHLMAQI-NH2 [Cys-variant CRHR2 peptide agonist, SEQ ID NO: 6]
Log DR against h-SCP, cAMP [3]: 0.61 log10 ratio | pA50, cAMP [3]: 9.07 -log M

Molecule: CKFTLSLDVPTNIMNLLFNIAKAKNLRAQAAANAHLMAQI-NH2 [Cys-variant CRHR2 peptide agonist, SEQ ID NO: 2]
Log DR against h-SCP, cAMP [3]: 0.72 log10 ratio | pA50, cAMP [3]: 8.97 -log M

Second part, the molecule after the results:

pA50, cAMP [1]: 9.51 -log M | αmax, cAMP [1]: 115 and 129 | αmax, cAMP ([1]; scale: % of the maximum response obtained to h-SCP): 117 | pKI [2]: 7.74 -log M
Molecule: human urocortin 2 (peptide)

Log DR against h-SCP, cAMP [3]: 0.76 log10 ratio | pA50, cAMP [3]: 8.93 -log M
Molecule: TKFCLSLDVPTNIMNLLFNIAKAKNLRAQAAANAHLMAQI-NH2 [Cys-variant CRHR2 peptide agonist, SEQ ID NO: 5]

pA50, cAMP [4]: 8.49 -log M | αmax, cAMP [4]: 106 % of the maximum response to h-SCP
Molecule: TLSLDVPTNIMNLLFNIAKAKNLRAQAAANAHLMAQI-NH2 [CRHR2 peptide agonist with shortened amino acid sequence, 37aa, SEQ ID NO: 108]

Log DR against h-SCP, cAMP [3]: 1.3 log10 ratio | pA50, cAMP [3]: 8.28 -log M
Molecule: TKFTLSLDCPTNIMNLLFNIAKAKNLRAQAAANAHLMAQI-NH2 [Cys-variant CRHR2 peptide agonist, SEQ ID NO: 10]

Log DR against h-SCP, cAMP [3]: 0.72 log10 ratio | pA50, cAMP [3]: 8.97 -log M
Molecule: TCFTLSLDVPTNIMNLLFNIAKAKNLRAQAAANAHLMAQI-NH2 [Cys-variant CRHR2 peptide agonist, SEQ ID NO: 3]

Log DR against h-SCP, cAMP [3]: -0.08 log10 ratio | pA50, cAMP [3]: 9.55 -log M
B1: Cys-variant of stresscopin peptide with N-Ethylsuccinimide (NES) reactive group, SEQ ID NO: 54 (peptide)
peptide: TKFTLSLDVPTNIMNC(Succinimide(1-Et,3-yl))LFNIAKAKNLRAQAAANAHLMAQI-NH2
modifications: N-terminus assumed
SMILES: CC[C@H](C)[C@H](NC(=O)[C@H](CCC(N)=O)NC(=O)[C@H](C)NC(=O)[C@H](CCSC)NC(=O)[C@H](CC(C)C)NC(=O)[C@H](Cc1c[nH]cn1)NC(=O)[C@H](C)NC(=O)[C@H](CC(N)=O)NC(=O)[C@H](C)NC(=O)[C@H](C)NC(=O)[C@H](C)NC(=O)[C@H](CCC(N)=O)NC(=O)[C@H](C)NC(=O)[C@H](CCCNC(=N)N)NC(=O)[C@H](CC(C)C)NC(=O)[C@H](CC(N)=O)NC(=O)[C@H](CCCCN)NC(=O)[C@H](C)NC(=O)[C@H](CCCCN)NC(=O)[C@H](C)NC(=O)[C@@H](NC(=O)[C@H](CC(N)=O)NC(=O)[C@H](Cc1ccccc1)NC(=O)[C@H](CC(C)C)NC(=O)[C@H](CSC1CC(=O)N(CC)C1=O)NC(=O)[C@H](CC(N)=O)NC(=O)[C@H](CCSC)NC(=O)[C@@H](NC(=O)[C@H](CC(N)=O)NC(=O)[C@@H](NC(=O)[C@@H]1CCCN1C(=O)[C@@H](NC(=O)[C@H](CC(=O)O)NC(=O)[C@H](CC(C)C)NC(=O)[C@H](CO)NC(=O)[C@H](CC(C)C)NC(=O)[C@@H](NC(=O)[C@H](Cc1ccccc1)NC(=O)[C@H](CCCCN)NC(=O)[C@@H](N)[C@@H](C)O)[C@@H](C)O)C(C)C)[C@@H](C)O)[C@@H](C)CC)[C@@H](C)CC)C(N)=O

Log DR against h-SCP, cAMP [3]: ~2.22 log10 ratio | pA50, cAMP [3]: ~7.25 -log M
B2: Cys-variant of stresscopin peptide with N-Ethylsuccinimide (NES) reactive group, SEQ ID NO: 53 (peptide)
peptide: TKFTLSLDVPTNIMNLC(Succinimide(1-Et,3-yl))FNIAKAKNLRAQAAANAHLMAQI-NH2
modifications: N-terminus assumed
SMILES: CC[C@H](C)[C@H](NC(=O)[C@H](CCC(N)=O)NC(=O)[C@H](C)NC(=O)[C@H](CCSC)NC(=O)[C@H](CC(C)C)NC(=O)[C@H](Cc1c[nH]cn1)NC(=O)[C@H](C)NC(=O)[C@H](CC(N)=O)NC(=O)[C@H](C)NC(=O)[C@H](C)NC(=O)[C@H](C)NC(=O)[C@H](CCC(N)=O)NC(=O)[C@H](C)NC(=O)[C@H](CCCNC(=N)N)NC(=O)[C@H](CC(C)C)NC(=O)[C@H](CC(N)=O)NC(=O)[C@H](CCCCN)NC(=O)[C@H](C)NC(=O)[C@H](CCCCN)NC(=O)[C@H](C)NC(=O)[C@@H](NC(=O)[C@H](CC(N)=O)NC(=O)[C@H](Cc1ccccc1)NC(=O)[C@H](CSC1CC(=O)N(CC)C1=O)NC(=O)[C@H](CC(C)C)NC(=O)[C@H](CC(N)=O)NC(=O)[C@H](CCSC)NC(=O)[C@@H](NC(=O)[C@H](CC(N)=O)NC(=O)[C@@H](NC(=O)[C@@H]1CCCN1C(=O)[C@@H](NC(=O)[C@H](CC(=O)O)NC(=O)[C@H](CC(C)C)NC(=O)[C@H](CO)NC(=O)[C@H](CC(C)C)NC(=O)[C@@H](NC(=O)[C@H](Cc1ccccc1)NC(=O)[C@H](CCCCN)NC(=O)[C@@H](N)[C@@H](C)O)[C@@H](C)O)C(C)C)[C@@H](C)O)[C@@H](C)CC)[C@@H](C)CC)C(N)=O
